Experiment [1] addresses T1, TGF-β1 (UniProt P01137 279-390). Description: cell-based or functional assay.
Experiment [2] addresses T1, TGF-β1. Description: SPR (Biacore); amine-coupled TGF-β1 on chip, antibody as analyte, kinetic fit. From the text:
Recombinant mAb1-D10 fusion variants of Example 7 were also quantitatively assessed for TGF-β1 binding using surface plasmon resonance (SPR) as detected by Biacore. Samples containing purified variants were passed over a sensor chip with amine-coupled TGF-β1 to determine the equilibrium constant, KD. A target immobilization level of less than 100 response units (RU) of TGF-β1 was chosen to minimize the potential for avidity effects arising from binding adjacent TGF-β1 molecules on the chip. The level of immobilization was determined by the change in response units after NHS/EDC activation of the chip surface, but before quenching with ethanolamine. The fusion variants, WT fusion variant F1, and mAb1 control were diluted to 30, 10, 3, 1 and 0.37 nM in HBS-EP buffer and passed over the TGF-β1 chip at 30 μL/min for 3 min, followed by 5 min dissociation in the same buffer. Between runs, the chip surface was regenerated to remove any bound antibody by passing two 30 sec injections of 40 mM HCl over the chip at a flow rate of 75 μL/min. […] Unexpectedly, the maximum signal (RU) elicited by the fusion variants decreased with increasing number of peptides, with variant F17 (D10-HC-D10/D10-LC, PAR=6) showing the lowest signal. […] A possible explanation of this decline may reflect electrostatic repulsion between the chip matrix (carboxymethyl dextran) and the negatively charged D10 peptides.
On the technique in general: Surface plasmon resonance follows binding to a sensor surface in real time, without labels.

Experiment [3] addresses T1, TGF-β1. The experiment is described as follows: cell-based or functional assay. The source holds these as a separate data set.
Experiment [4] addresses T1, TGF-β1. The experiment is described as follows: cell-based or functional assay. The source holds these as a separate data set.
Experiment [5] deals with T1, TGF-β1. The experiment is described as follows: cell-based or functional assay. The source holds these as a separate data set.

Where two headings read alike, the source gives them in different places.

T1 sequence (P01137 279-390 limits assumed): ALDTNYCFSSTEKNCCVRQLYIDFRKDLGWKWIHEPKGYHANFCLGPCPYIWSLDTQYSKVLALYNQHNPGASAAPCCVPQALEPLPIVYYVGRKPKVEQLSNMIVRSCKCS

B1: mAb1 F17 (antibody, mouse IgG1, kappa)
heavy: DDDDDDDDDDHVQLQQSGPELVRPGASVKLSCKASGYIFITYWMNWVKQRPGQGLEWIGQIFPASGSTNYNEMFEGKATLTVDTSSSTAYMQLSSLTSEDSAVYYCARGDGNYALDAMDYWGQGTSVTVSSAKTTPPSVYPLAPGSAAQTNSMVTLGCLVKGYFPEPVTVTWNSGSLSSGVHTFPAVLQSDLYTLSSSVTVPSSTWPSQTVTCNVAHPASSTKVDKKIVPRDCGCKPCICTVPEVSSVFIFPPKPKDVLTITLTPKVTCVVVDISKDDPEVQFSWFVDDVEVHTAQTKPREEQFNSTFRSVSELPIMHQDWLNGKEFKCRVNSAAFPAPIEKTISKTKGRPKAPQVYTIPPPKEQMAKDKVSLTCMITDFFPEDITVEWQWNGQPAENYKNTQPIMDTDGSYFVYSKLNVQKSNWEAGNTFTCSVLHEGLHNHHTEKSLSHSPGKDDDDDDDDDD
light: DDDDDDDDDDNIVLTQSPASLAVSLGQRATISCRASESVDSYGNSFMHWYQQKSGQPPKLLIYLASNLESGVPARFSGSGSRTDFTLTIDPVEADDAATYYCQQNNEDPLTFGAGTKLELKRADAAPTVSIFPPSSEQLTSGGASVVCFLNNFYPKDINVKWKIDGSERQNGVLNSWTDQDSKDSTYSMSSTLTLTKDEYERHNSYTCEATHKTSTSPIVKSFNRNEC
notes: Mouse IgG1 fusion variant, PAR 6; also called D10-HC-D10: D10-LC
As for B1, the “IC50 (read off the curve); IL-11 release by A549 cells in response to TGF-β1” value (from here on “IC50 (read off the curve); IL-11 release”) with TGF-β1 [1] was about 0.02 nM. Also, in the experiment with TGF-β1 [2], the Kd – broadly, a measure of binding affinity in units of concentration – stood at 4.15 nM; the koff (commonly the rate constant with which the complex falls apart) worked out at 0.00079 s⁻¹; the kon (usually the second-order rate constant of association) turned out to be 191000 M⁻¹ s⁻¹.

B2: mAb1 control conjugate (PAR=0) (antibody, mouse IgG1, kappa)
heavy: HVQLQQSGPELVRPGASVKLSCKASGYIFITYWMNWVKQRPGQGLEWIGQIFPASGSTNYNEMFEGKATLTVDTSSSTAYMQLSSLTSEDSAVYYCARGDGNYALDAMDYWGQGTSVTVSSAKTTPPSVYPLAPGSAAQTNSMVTLGCLVKGYFPEPVTVTWNSGSLSSGVHTFPAVLQSDLYTLSSSVTVPSSTWPSQTVTCNVAHPASSTKVDKKIVPRDCGCKPCICTVPEVSSVFIFPPKPKDVLTITLTPKVTCVVVDISKDDPEVQFSWFVDDVEVHTAQTKPREEQFNSTFRSVSELPIMHQDWLNGKEFKCRVNSAAFPAPIEKTISKTKGRPKAPQVYTIPPPKEQMAKDKVSLTCMITDFFPEDITVEWQWNGQPAENYKNTQPIMDTDGSYFVYSKLNVQKSNWEAGNTFTCSVLHEGLHNHHTEKSLSHSPGK
light: NIVLTQSPASLAVSLGQRATISCRASESVDSYGNSFMHWYQQKSGQPPKLLIYLASNLESGVPARFSGSGSRTDFTLTIDPVEADDAATYYCQQNNEDPLTFGAGTKLELKRADAAPTVSIFPPSSEQLTSGGASVVCFLNNFYPKDINVKWKIDGSERQNGVLNSWTDQDSKDSTYSMSSTLTLTKDEYERHNSYTCEATHKTSTSPIVKSFNRNEC
modifications: hinge disulfides reduced; D10-maleimide peptide omitted; thiols blocked with N-ethylmaleimide
On to B2, for which the “half-maximal inhibition of IL-11 release (EC50), A549 cells” value (“half-maximal inhibition of IL-11 release” for short) with TGF-β1 [3] is about 0.1 nM. Further, in the experiment with TGF-β1 [4], the “IC50 (read off the curve); IL-11 release” value was about 0.05 nM.

B3: mAb1 (mouse IgG1 anti-TGFβ monoclonal antibody, R&D Systems Clone #1D11) (antibody)
heavy: B2 heavy
light: B2 light
notes: Mouse IgG1, pan-specific anti-TGFβ; bought antibody used as control; also called unmodified mAb; mAb1 control
As to B3, the “half-maximal inhibition of IL-11 release” value in the experiment with TGF-β1 [3] is about 0.1 nM. For the same molecule, in the experiment with TGF-β1 [4], the “IC50 (read off the curve); IL-11 release” value is about 0.2 nM. Besides, in the experiment with TGF-β1 [5], the “IC50 (read off the curve); IL-11 release” value was about 0.2 nM. Besides, the “IC50 (read off the curve); IL-11 release” value in the experiment with TGF-β1 [1] is about 0.1 nM. Further, in the experiment with TGF-β1 [2], the equilibrium dissociation constant (Kd) came out at 6 nM, the koff is 0.001 s⁻¹ and the kon stood at 167000 M⁻¹ s⁻¹.

B4: mAb1-D10 conjugate (PAR=5) (antibody, mouse IgG1, kappa)
heavy: B2 heavy
light: B2 light
modifications: Ac-D10-C2-PEG12-C6-maleimide on reduced hinge region cysteines; average 5 peptides per antibody
As to B4, the “half-maximal inhibition of IL-11 release” value with TGF-β1 [3] is about 0.1 nM. Further, the “IC50 (read off the curve); IL-11 release” value with TGF-β1 [4] is about 0.06 nM.

B5: mAb1-D10 conjugate (PAR=9) (antibody, mouse IgG1, kappa)
heavy: B2 heavy
light: B2 light
modifications: Ac-D10-C2-PEG12-C6-maleimide possibly on a light chain cysteine; Ac-D10-C2-PEG12-C6-maleimide on reduced hinge region cysteines; average 9 peptides per antibody (heavy and light chains together)
As for B5, the “half-maximal inhibition of IL-11 release” value in the experiment with TGF-β1 [3] was about 0.1 nM. In addition, the “IC50 (read off the curve); IL-11 release” value with TGF-β1 [4] is about 0.04 nM.

Values taken from patent US20210163584A1 (Sanofi, published 2021).
